Results as given in US20220047716A1 (SUTRO BIOPHARMA, published 2022).

Target: human folate receptor alpha (hFOLR1) (human, UniProt P15328 25-234)
Assay: cell-based or functional assay

Chain of human folate receptor alpha (hFOLR1) (P15328 25-234 limits assumed): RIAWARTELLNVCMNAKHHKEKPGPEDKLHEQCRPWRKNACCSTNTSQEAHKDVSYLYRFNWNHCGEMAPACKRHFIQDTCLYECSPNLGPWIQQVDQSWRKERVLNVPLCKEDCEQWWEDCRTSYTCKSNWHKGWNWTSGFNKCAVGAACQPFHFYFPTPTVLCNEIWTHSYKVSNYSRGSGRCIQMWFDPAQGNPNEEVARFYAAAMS

Binder | Igrov 2° antibody cell killing EC50 [nM] | Igrov 2° antibody cell killing Span [%] | KB 2° antibody cell killing EC50 [nM] | KB 2° antibody cell killing Span [%]
SRP1848-F04 (antibody, V domains shown) VH: EVQLVESGGGLVQPGGSLRLSCAASGFNISNYSIHWVRQAPGKGLEWVGEIYPIDGITDYADSVKGRFTISADTSKNTAYLQMNSLRAEDTAVYYCARGSWFWRSGYGYYLDYWGQGTLVTVSS VL: not shown | 0.015 | 73 | 0.096 | 93
SRP1848-A10 (antibody, V domains shown) VH: EVQLVESGGGLVQPGGSLRLSCAASGFNIRKYSIHWARQAPGKGLEWVGDIFPIDDITDYADSVKGRFTISADTSKNTAYLQMNSLRAEDTAVYYCARGSWSWPSGHSYYLDYWGQGTLVTVSS VL: not shown | 0.027 | 75 | 0.033 | 96
SRP1848-B01 (antibody, V domains shown) VH: EVQLVESGGGLVQPGGSLRLSCAASGFNIRNYSIHWVRQAPGKGLEWVGEIYPVDGITDYADSVKGRFTISADTSKNTAYLQMNSLRAEDTAVYYCARGFWSWPSGYSYFLDYWGQGTLVTVSS VL: not shown | 0.031 | 82 | 0.064 | 95
SRP1848-B11 (antibody, V domains shown) VH: EVQLVESGGGLVQPGGSLRLSCAASGFNIGNNSIHWVRQAPGKGLEWVGDISPIDGFTDYADSVKGRFTISADTSKNTAYLQMNSLRAEDTAVYYCARGSWSWRAGYGYYLDYWGQGTLVTVSS VL: not shown | 0.026 | 74 | 0.058 | 93
SRP1848-C04 (antibody, V domains shown) VH: EVQLVESGGGLVQPGGSLRLSCAASGFNIRHYSIHWVRQAPGKGLEWVGEIYPGPGNTDYADSVKGRFTISADTSKNTAYLQMNSLRAEDTAVYYCARGSLSWRAGYGYYLDYWGQGTLVTVSS VL: not shown | 0.016 | 68 | 0.006 | 94
SRP1848-A09 (antibody, V domains shown) VH: EVQLVESGGGLVQPGGSLRLSCAASGFNIRKQSIHWVRQAPGKGLEWVGSIFPNDGTTDYADSVKGRFTISADTSKNTAYLQVNSLRAEDTAVYYCARGSWFWRSGYGYFLEYWGQGTLVTVSS VL: not shown | 0.026 | 71 |  | 93
SRP1848-A07 (antibody, V domains shown) VH: EVQLVESGGGLVQPGGSLRLSCAASGFNIGYHSIHWVRQAPGKGLEWVGEIFPVDGTTDYADSVKGRFTISADTSKNTAYLHMNSLRAEDTAVYYCARGFWAWRSGYGYYLDYWGQGTLVTVSS VL: not shown | 0.029 | 68 | 0.062 | 95
SRP1848-B07 (antibody, V domains shown) VH: EVQLVESGGGLVQPGGSLRLSCAASGFNISRFYIHWVRQAPGKGLEWVGGISPYDGFTDYADSVKGRFTISADTSKNTAYLQMNSLRAEDTAVYYCARGSWSWPAGYGYYQDYWGQGTLVTVSS VL: not shown | 0.038 | 73 | 0.079 | 96
SRP1848-B09 (antibody, V domains shown) VH: EVQLVESGGGLVQPGGSLRLSCAAGGFNITNYYIHWVRQAPGKGLEWVGGITPVDGYTDYADRVKGRFTISADTSKNTAYLQMNSLRAEDTAVYYCARGAWSWRSGYGYYMDYWGQGTLVTVSS VL: not shown | 0.027 | 74 | 0.073 | 97
SRP1848-A04 (antibody, V domains shown) VH: EVQLVESGGGLVQPGGSLRLSCAASGFNIDQSSIHWVRQAPGKGLEWVGVIYPVDGTTDYADSVKGRFTISADTSKNTAYLQMNSLRAEDTAVYYCARGAWSWRSGYGYYIDYWGQGTLVTVSS VL: not shown | 0.015 | 64 | 0.052 | 92
SRP1848-C05 (antibody, V domains shown) VH: EVQLVESGGGLVQPGGSLRLSCAASGFNIRKYSIHWVRQAPGKGLEWVGDIFPIDGINDYADSVKGRFTISADTSKNTAYLQMNSLRAEDTAVYYCARGSWSWKAGYGYYLDYWGQGTLVTVSS VL: not shown | 0.021 | 62 | 0.073 | 92
SRP1848-B04 (antibody, V domains shown) VH: EVQLVESGGGLVQPGGSLRLSCAASSFNISNHSIHWVRQAPGKGLEWVGEIYPVDGITDYADSVKGRFTISADTSKNTAYLQMNSLRAEDTAVYYCARGRYSWRAGYSYYLDYWGQGTLVTVSS VL: not shown | 0.018 | 70 | 0.035 | 94
SRP1848-C07 (antibody, V domains shown) VH: EVQLVESGGGLVQPGGSLRLSCAASGFNIRKYSIHWVRQAPGKGLEWVGDIFPIDGITDYADSMKGRFTISADTSKNTAYLQMNSLRAEDTAVYYCARGSWSWPAGYGYYQDYWGQGTLVTVSS VL: not shown | 0.013 | 67 | 0.065 | 93
SRP1848-B10 (antibody, V domains shown) VH: EVQLVESGGGLVQPGGSLRLSCAASGFNTTTKSIHWVRQAPGKGLEWVGEIYPRDGITDYADSVKGRFTISADTSKNTAYLQMNSLRAEDTAVYYCARGGWHWRSGYSYYLDYWGQGTLVTVSS VL: not shown |  | 71 | 0.04 | 97
SRP1848-A06 (antibody, V domains shown) VH: EVQLVESGGGLVQPGGSLRLSCAASGFNIGNSYIHWVRQAPGKGLEWVGGITPIDGNTDYADSVKGRFTISADTSKNTAYLQMNSLRAEDTAVYYCARGAWSWRSGYGYYIDYWGQGTLVTVSS VL: not shown |  | 72 | 0.046 | 93
SRP1848-B05 (antibody, V domains shown) VH: EVQLVESGGGLVQPGGSLRLSCAASGFNISNYYIHWVRQAPGKGLEWVGGISPIDGYTDYADSMKGRFTISADTSKNTAYLQMSSLRAEDTAVYYCARGSWFWQSGYGYYLDYWGQGTLVTVSS VL: not shown | 0.04 | 72 | 0.065 | 94
SRP1848-C10 (antibody, V domains shown) VH: EVQLVESGGGLVQPGGSLRLSCAASGFNIRTYYIHWVRQAPGKGLEWVGGISPIDGYTDYADSVKGRFTISADTSKNTAYLQMNSLRAEDTAVYYCARGSWSWPAGYGYYLDYWGQGTLVTVSS VL: not shown | 0.036 | 75 | 0.057 | 96
SRP1848-C03 (antibody, V domains shown) VH: EVQLVESGGGLVQPGGSLRLSCAASGFNIGVYSIHWVRQAPGKGLEWVGEIYPIDGNTDYADSVKGRFTISADTSKNTAYLQMNSLRAEDTAVYYCARGSWAWRSGYSYYLDYWGQGTLVTVSS VL: not shown | 0.035 | 72 | 0.074 | 93
SRP1848-B06 (antibody, V domains shown) VH: EVQLVESGGGLVQPGGSLRLSCAASGFNISNYYIHWVRQAPGKGLEWVGGITPIDGYTDYADSVKGRFTISADTSKNTAYLQMNSLRAEDTAVYYCARGFWSWPSGYGYYQDYWGQGTLVTVSS VL: not shown | 0.022 | 72 | 0.058 | 95
SRP1848-C01 (antibody, V domains shown) VH: EVQLVESGGGLVQPGGSLRLSCAASGFNIGNSYIHWVRQAPGKGLEWVGGVTPNDGYTDYADSVKGRFTISADTSKNTTYLQMNSLRAEDTAVYYCARGSWFWRAGYGYYLDYWGQGALVTVSS VL: not shown | 0.023 | 68 |  | 90
SRP1848-B03 (antibody, V domains shown) VH: EVQLVESGGGLVQPGGSLRLSCAASGFNISMKYIHWVRQAPGKGLEWVGGITPIDGMTDYADSVKGRFTISADTSKNTAYLQMNSLRAEDTAVYYCARGSWSWPSGYSYYLDYWGQGTLVTVSS VL: not shown | 0.028 | 66 | 0.05 | 94
SRP1848-D02 (antibody, V domains shown) VH: EVQLVESGGGLVQPGGSLRLSCAASGFNISHNYIHWVRQAPGKGLEWVGGITPQDGYTDYADSVKGRFTISADTSKNTAYLQMNRLRAEDTAVYYCARGAWSWRAGYGYYLDYWGQGTLVTVSS VL: not shown | 0.027 | 71 | 0.034 | 93
SRP1848-A08 (antibody, V domains shown) VH: EVQLVESGGGLVQPGGSLRLSCAASGSNIRKHSIHWVRQAPGKGLEWVGSIYPNDGTTDYADSVKGRFTISADTSKNTAYLQMNSLRAEDTAVYYCARGSWFWRAGYGYYLDYWGQGTLVTVSS VL: not shown | 0.013 | 65 | 0.039 | 93
SRP1848-A01 (antibody, V domains shown) VH: EVQLVESGGGLVQPGGSLRLSCAASGFNITRYSIHWVRQAPGKGLEWVAGILPESGGTSYADSVKGRFTISADTSKNTAYLQMNSLRAEDTAVYYCARHIYPWDWFSNYVLDYWGQGTLVTVSS VL: not shown | 0.015 | 71 | 0.064 | 94
